According to PMC3981819, “Signaling Properties and Pharmacological Analysis of Two Sulfakinin Receptors from the Red Flour Beetle, Tribolium castaneum” (PLoS ONE, 2014):
Square brackets hold non-standard residues; d marks the D form. Ends that are not written are not given here. sY = N[C@@H](Cc1ccc(OS(=O)(=O)O)cc1)C(=O)O; pGlu = O=C1CC[C@@H](C(=O)O)N1

B1: nsLocmi-SK (peptide)
peptide: [pGlu]LASDDYGHMRF-NH2
SMILES: CSCC[C@H](NC(=O)[C@H](Cc1c[nH]cn1)NC(=O)CNC(=O)[C@H](Cc1ccc(O)cc1)NC(=O)[C@H](CC(=O)O)NC(=O)[C@H](CC(=O)O)NC(=O)[C@H](CO)NC(=O)[C@H](C)NC(=O)[C@H](CC(C)C)NC(=O)[C@@H]1CCC(=O)N1)C(=O)N[C@@H](CCCNC(=N)N)C(=O)N[C@@H](Cc1ccccc1)C(N)=O
B2: 1569[φ2]wp-4 (peptide)
peptide: PVD[sY]DRPIMAF-NH2
modifications: N-terminus assumed
SMILES: CC[C@H](C)[C@H](NC(=O)[C@@H]1CCCN1C(=O)[C@H](CCCNC(=N)N)NC(=O)[C@H](CC(=O)O)NC(=O)[C@H](Cc1ccc(OS(=O)(=O)O)cc1)NC(=O)[C@H](CC(=O)O)NC(=O)[C@@H](NC(=O)[C@@H]1CCCN1)C(C)C)C(=O)N[C@@H](CCSC)C(=O)N[C@@H](C)C(=O)N[C@@H](Cc1ccccc1)C(N)=O
B3: 1678B[φ1]wp-6 (peptide)
peptide: DG[sY]RPLQF-NH2
modifications: N-terminus assumed
SMILES: CC(C)C[C@H](NC(=O)[C@@H]1CCCN1C(=O)[C@H](CCCNC(=N)N)NC(=O)[C@H](Cc1ccc(OS(=O)(=O)O)cc1)NC(=O)CNC(=O)[C@@H](N)CC(=O)O)C(=O)N[C@@H](CCC(N)=O)C(=O)N[C@@H](Cc1ccccc1)C(N)=O
B4: 1567[φ1]wp-5 (peptide)
peptide: SPVD[sY]DRPIMAF-NH2
modifications: N-terminus assumed
SMILES: CC[C@H](C)[C@H](NC(=O)[C@@H]1CCCN1C(=O)[C@H](CCCNC(=N)N)NC(=O)[C@H](CC(=O)O)NC(=O)[C@H](Cc1ccc(OS(=O)(=O)O)cc1)NC(=O)[C@H](CC(=O)O)NC(=O)[C@@H](NC(=O)[C@@H]1CCCN1C(=O)[C@@H](N)CO)C(C)C)C(=O)N[C@@H](CCSC)C(=O)N[C@@H](C)C(=O)N[C@@H](Cc1ccccc1)C(N)=O
B5: 1678A[φ1]wp-4 (peptide)
peptide: D[sY]RPLQF-NH2
modifications: N-terminus assumed
SMILES: CC(C)C[C@H](NC(=O)[C@@H]1CCCN1C(=O)[C@H](CCCNC(=N)N)NC(=O)[C@H](Cc1ccc(OS(=O)(=O)O)cc1)NC(=O)[C@@H](N)CC(=O)O)C(=O)N[C@@H](CCC(N)=O)C(=O)N[C@@H](Cc1ccccc1)C(N)=O

What was measured:
Trica-SKR1 = assay: Aequorin-luminescence assay, CHO-WTA11 cells (Gα16) transfected with Trica-SKR1; format: cell-based, Tribolium castaneum; conditions: peptide at 1 μM, aequorin bioluminescence, relative to sTrica-SK(5–13) at 1 μM = 100%, at least three biological repeats, each in duplicate
Experimental: (§1) General pharmacological studies were performed in Chinese Hamster Ovary (CHO) WTA11 cells, stably coexpressing apoaequorin, a zeocin resistance gene and the promiscuous Gα16, which couples most agonist-induced GPCRs to the phospholipase C and Ca^2+ pathway irrespective of their natural signaling cascade. CHO-PAM28 cells stably expressing apoaequorin and a puromycin resistance gene but not Gα16 and HEK293T cells (Invitrogen) were used to determine possible effects on Ca^2+ and/or cAMP second messenger systems, respectively. All cell lines were cultured in Dulbecco’s Modified Eagles Medium nutrient mixture F12-Ham (DMEM/F12; Invitrogen) supplemented with 1% penicillin/streptomycin (10000 units/ml penicillin and 10 mg/ml streptomycin in 0.9% NaCl; Invitrogen) to prevent bacterial contamination of gram-positive and gram-negative bacteria. In CHO-WTA11 culture medium 250 μg/ml zeocin (Invitrogen) was added as a selection marker, while CHO-PAM28 culture medium was supplemented with 5 μg/ml puromycin to select cells stably expressing apoaequorin. All cell culture media were supplemented with 10% fetal bovine serum (inactivated at […]; Sigma-Aldrich).
(§2) Cells were cultured in vitro as a monolayer at 37°C with a constant supply of 5% CO2 and were subcultivated twice a week. Transfections of cells were performed in T75 flasks at 60–80% confluency. Transfection reagent for CHO cells was prepared by combining 3.75 ml Opti-MEM I (Invitrogen), 7.5 μg plasmid DNA and 18.75 μl of Plus Reagent (Invitrogen). After gently mixing and 5 min incubation at room temperature 45 μl of Lipofectamine LTX was added to the mixture. This transfection medium was incubated for 30 min at room temperature and added dropwise to the cells, supplemented with 3 ml of fresh culture medium. HEK 293T cells were cotransfected with a receptor construct (6 μg) and CRE-luciferase reporter construct (3 μg), consisting of the open reading frame of the luciferase gene, downstream of a multimerized cAMP-response-element (CRE) and promoter. After transfection, cells were grown overnight before an additional 20 ml of culture medium was supplemented. Cells were again incubated overnight for a final growth phase before luminescence screens were performed.
(§3) The aequorin luminescence assay was used to measure Ca^2+ signaling in CHO cell lines. Cells were detached using phosphate buffered saline (PBS) containing 0.2% EDTA and collected in 10 ml of DMEM/F-12 (without phenol red, with L-glutamine and 10 mM HEPES; Gibco). The viable cells were quantified using a NucleoCounter NC-100 (Chemometic). Cells were pelleted by 4 min centrifugation at 800 rpm at room temperature and resuspended in DMEM/BSA (DMEM/F-12 without phenol red, with L-glutamine and 10 mM HEPES, 0.1% bovine serum albumin) at a concentration of 5×10^6 cells/ml. Cells were then shielded from light and Coelenterazine H (Invitrogen) was added at a final concentration of 5 μM. Cells were gently shaken at room temperature for 4 h under dark conditions, allowing the aequorin holoenzyme to be reconstituted. After a 10-fold dilution in DMEM/BSA, cells were incubated another 30 min under the same conditions. Pharmacological ligands were dissolved in DMEM/BSA and 50 μl of ligand was added to wells of a 96-well plate. Wells containing 50 μl of DMEM/BSA were used as a negative control, while wells containing 1 μM of ATP served as positive control. Incubated cells were added to the wells of the 96-well plate and light emission was measured for 30 s using a Mithras LB940 (Berthold Technologies). After 30 s Triton X-100 (0.2% in DMEM/BSA) was added, lysing the cells and thus serving as an internal reference. Light emission was measured for an additional 8 s after Triton X-100 was introduced in the wells. Light emission from each well was calculated relative to the total response (ligand+Triton X-100) using the output file of Mikrowin2000 software (Mikrotek). Further analysis was done in Graphpad Prism 5.

Trica-SKR2 = assay: Aequorin-luminescence assay, CHO-WTA11 cells (Gα16) transfected with Trica-SKR2; format: cell-based, Tribolium castaneum; conditions: peptide at 1 μM, aequorin bioluminescence, relative to sTrica-SK(5–13) at 1 μM = 100%, at least three biological repeats, each in duplicate
Experimental: as §1, §2, §3

[1] = biological target: Tribolium castaneum sulfakinin receptor 1 (T. castaneum)
[2] = biological target: Tribolium castaneum sulfakinin receptor 2 (T. castaneum)

| Molecule | % Trica-SKR1 (relative activation) (Trica-SKR1) [%] | % Trica-SKR2 (relative activation) (Trica-SKR2) [%] | aequorin bioluminescence in CHO-WTA11 cells transfected with the receptor, peptide at 1 μM, % of the response to 1 μM sTrica-SK(5–13) [1] [%] | aequorin bioluminescence in CHO-WTA11 cells transfected with the receptor, peptide at 1 μM, % of the response to 1 μM sTrica-SK(5–13) [2] [%] |
| --- | --- | --- | --- | --- |
| pQPSY(SO3H)DRDIMSFa [1679[φ1]wp-4, sulfated neuropeptide derived from C. elegans nlp-13] | 16.5 | 16.6 | – | – |
| HMRF-NH2 [2052[φ1]wp-3] | – | – | 43.4 | 33.4 |
| FDDYGHARF-NH2 [2005[φ1]wp-3] | – | – | 5.1 | 11.1 |
| DDYGHMRF-NH2 (ends and bridges not checked) [2009[φ1]wp-1] | – | – | 27.2 | 17.1 |
| FDDYGAMRF-NH2 [2006[φ1]wp-1] | – | – | 2.3 | 3.5 |
| B1 | – | – | 22.2 | 18.2 |
| FDDYGHMAF-NH2 [2004[φ1]wp-1] | – | – | 5.9 | 7.3 |
| GHMRF-NH2 [2053[φ1]wp-4] | – | – | 13.3 | 44.6 |
| B2 | – | – | 6.2 | 13.4 |
| DYGHMRF-NH2 (ends and bridges not checked) [2010[φ1]wp-1] | – | – | 7.6 | 8.6 |
| B3 | – | – | 28.5 | 19.9 |
| B4 | – | – | 23.6 | 33.7 |
| YGHMRF-NH2 (ends and bridges not checked) [2011[φ1]wp-1] | – | – | 26.3 | 21.2 |
| FDDYGHMRF-NH2 [nonsulfated Trica-SK(5–13)] | – | – | 29.9 | 23.5 |
| SPVDYDRPIMAF-NH2 [1432-2[φ]wp-6] | – | – | 16.4 | 11.2 |
| FDDYGHMR-NH2 (ends and bridges not checked) [2076[φ1]wp-2] | – | – | 25.8 | 19.7 |
| FDDYGHMRA-NH2 [2003[φ1]wp-2] | – | – | 8.2 | 15.6 |
| FDDYAHMRF-NH2 (ends and bridges not checked) [2007[φ1]wp-1] | – | – | 30.6 | 25.6 |
| FDDAGHMRF-NH2 [2008[φ1]wp-2] | – | – | 10.1 | 12.1 |
| B5 | – | – | 40.8 | 32.6 |
